The record followed here is publication PMC6527160.

Series [1] has as its target T1, LASV L protein Strep407 (Lassa virus Bantou 289, UniProt A0A3S8NV63 1-2217). In words: EMSA; 0-1 uM L, 0.6 uM RNA; 4 mM Mg2+; […]) pH 7.0, 150 mM NaCl ([…]. Conditions: protein: recombinant; tags: internal StrepII-tag inserted after residue 407; chain copies: 2; label: 32P (5' end, T4 PNK); single strand. On the technique in general: A gel shift assay detects complexes by their altered migration in electrophoresis.

Series [2] has as its target T1, LASV L protein Strep407. In words: EMSA; […]) pH 7.0, 150 mM NaCl ([…]. Particulars: protein: recombinant; tags: internal StrepII-tag inserted after residue 407; chain copies: 2; label: 32P (5' end, T4 PNK); single strand.

In the case of CGCACCGGGGAUCCUAGGC (ssRNA) [vRNA 5'], in the series with LASV L protein Strep407 [1], the binding result is listed as “binds”. Take GCGCACCGGGGAUCCUAGGC (ssRNA) [vRNA 5'G]: the binding result with LASV L protein Strep407 [2] was “binds”.
